Laboratory results reported in paper doi:10.1101/2023.01.06.522972.

Molecular target: Leishmania major actin (Leishmania major) (UniProt P45520)
Test: ITC

Leishmania major actin (Leishmania major), sequence (P45520 2-376): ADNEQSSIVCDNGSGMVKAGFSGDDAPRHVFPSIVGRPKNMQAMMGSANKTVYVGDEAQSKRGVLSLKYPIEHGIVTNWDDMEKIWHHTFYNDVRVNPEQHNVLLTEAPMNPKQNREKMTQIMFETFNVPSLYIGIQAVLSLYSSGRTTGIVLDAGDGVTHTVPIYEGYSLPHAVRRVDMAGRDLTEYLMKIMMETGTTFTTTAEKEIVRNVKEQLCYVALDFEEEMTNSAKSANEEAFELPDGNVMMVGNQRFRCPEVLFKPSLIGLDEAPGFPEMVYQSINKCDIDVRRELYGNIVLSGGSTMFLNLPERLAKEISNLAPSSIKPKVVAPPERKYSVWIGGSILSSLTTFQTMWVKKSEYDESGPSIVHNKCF

In the case of LmProfilin-K68A (natural protein), the Kd is reported as 6 µM.
LmProfilin-Y6A (natural protein) showed a Kd of 0.08 µM.
